The values below are quoted from earlier work in publication PMC4125468.

Read-outs that look alike come from different tables or passages of the source.

In data set [1] the target is MD-2 (Homo sapiens) (UniProt Q9Y6Y9).
Data set [2] has the same target. The experiment in a line: radioligand binding.
For another data set, the target named is sCD14 (Homo sapiens) (UniProt P08571).
Sequence of UniProt P08571 (P08571 20-345): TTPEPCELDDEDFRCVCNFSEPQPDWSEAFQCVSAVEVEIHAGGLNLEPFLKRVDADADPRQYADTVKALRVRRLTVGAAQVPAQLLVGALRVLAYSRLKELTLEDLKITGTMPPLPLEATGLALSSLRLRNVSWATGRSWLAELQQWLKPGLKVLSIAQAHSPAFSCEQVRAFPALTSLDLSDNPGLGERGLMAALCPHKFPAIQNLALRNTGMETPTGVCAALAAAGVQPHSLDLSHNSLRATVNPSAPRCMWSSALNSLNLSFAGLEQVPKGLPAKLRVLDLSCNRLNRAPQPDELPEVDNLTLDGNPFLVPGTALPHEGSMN

As usually defined, the Kd is the concentration at which binding is half-saturated. With TLR4ECD ECD (from UniProt O00206), in the data set with MD-2 (Homo sapiens) [1], the Kd was 0.2 nM.

As to TLR4 ECD (from UniProt O00206), in the data set with MD-2 (Homo sapiens) [2], the Kd was 0.5 nM.

Consider MD-2/TLR4ECD ECD (from UniProt Q9Y6Y9), for which, in the data set with sCD14 (Homo sapiens), the Kd was 0.2 nM.
